{"source": "the Human Domainome abundance scans (Beltran et al. 2025)", "parents": {"B1": {"name": "Calcium-binding protein 2, residues 155 to 219; numbered along this chain, Q9NPB3 (parent)", "chain": "RELRDAFREFDTNGDGRISVGELRAALKALLGERLSQREVDEILQDVDLNGDGLVDFEEFVRMMS"}}, "note": "± gives the uncertainty stated by the source.", "data": [{"variants_of": "B1", "assay": "abundance fitness (aPCA) (normalised: wild type 0, dead -1); higher = more abundant; growth selection in yeast, the domain comes from the species named", "conditions": "Homo sapiens", "values": [{"variant": "RELRNAFREFDTNGDGRISVGELRAALKALLGERLSQREVDEILQDVDLNGDGLVDFEEFVRMMS", "note": "[D5N]", "abundance fitness": "-0.034 ± 0.059"}, {"variant": "RELRTAFREFDTNGDGRISVGELRAALKALLGERLSQREVDEILQDVDLNGDGLVDFEEFVRMMS", "note": "[D5T]", "abundance fitness": "0.038 ± 0.058"}, {"variant": "RELREAFREFDTNGDGRISVGELRAALKALLGERLSQREVDEILQDVDLNGDGLVDFEEFVRMMS", "note": "[D5E]", "abundance fitness": "-0.054 ± 0.056"}, {"variant": "RELRSAFREFDTNGDGRISVGELRAALKALLGERLSQREVDEILQDVDLNGDGLVDFEEFVRMMS", "note": "[D5S]", "abundance fitness": "-0.382 ± 0.047"}, {"variant": "RELRCAFREFDTNGDGRISVGELRAALKALLGERLSQREVDEILQDVDLNGDGLVDFEEFVRMMS", "note": "[D5C]", "abundance fitness": "-0.178 ± 0.069"}, {"variant": "RELRHAFREFDTNGDGRISVGELRAALKALLGERLSQREVDEILQDVDLNGDGLVDFEEFVRMMS", "note": "[D5H]", "abundance fitness": "-0.159 ± 0.062"}, {"variant": "RELRAAFREFDTNGDGRISVGELRAALKALLGERLSQREVDEILQDVDLNGDGLVDFEEFVRMMS", "note": "[D5A]", "abundance fitness": "-0.226 ± 0.049"}, {"variant": "RELRGAFREFDTNGDGRISVGELRAALKALLGERLSQREVDEILQDVDLNGDGLVDFEEFVRMMS", "note": "[D5G]", "abundance fitness": "-0.318 ± 0.05"}, {"variant": "RELRMAFREFDTNGDGRISVGELRAALKALLGERLSQREVDEILQDVDLNGDGLVDFEEFVRMMS", "note": "[D5M]", "abundance fitness": "-0.171 ± 0.061"}, {"variant": "RELRQAFREFDTNGDGRISVGELRAALKALLGERLSQREVDEILQDVDLNGDGLVDFEEFVRMMS", "note": "[D5Q]", "abundance fitness": "-0.007 ± 0.075"}, {"variant": "RELRWAFREFDTNGDGRISVGELRAALKALLGERLSQREVDEILQDVDLNGDGLVDFEEFVRMMS", "note": "[D5W]", "abundance fitness": "-0.491 ± 0.071"}, {"variant": "RELRRAFREFDTNGDGRISVGELRAALKALLGERLSQREVDEILQDVDLNGDGLVDFEEFVRMMS", "note": "[D5R]", "abundance fitness": "-0.119 ± 0.038"}, {"variant": "RELRVAFREFDTNGDGRISVGELRAALKALLGERLSQREVDEILQDVDLNGDGLVDFEEFVRMMS", "note": "[D5V]", "abundance fitness": "-0.19 ± 0.051"}, {"variant": "RELRFAFREFDTNGDGRISVGELRAALKALLGERLSQREVDEILQDVDLNGDGLVDFEEFVRMMS", "note": "[D5F]", "abundance fitness": "-0.066 ± 0.078"}, {"variant": "RELRYAFREFDTNGDGRISVGELRAALKALLGERLSQREVDEILQDVDLNGDGLVDFEEFVRMMS", "note": "[D5Y]", "abundance fitness": "-0.451 ± 0.087"}, {"variant": "RELRPAFREFDTNGDGRISVGELRAALKALLGERLSQREVDEILQDVDLNGDGLVDFEEFVRMMS", "note": "[D5P]", "abundance fitness": "-0.665 ± 0.064"}, {"variant": "RELRIAFREFDTNGDGRISVGELRAALKALLGERLSQREVDEILQDVDLNGDGLVDFEEFVRMMS", "note": "[D5I]", "abundance fitness": "-0.219 ± 0.08"}, {"variant": "RELRLAFREFDTNGDGRISVGELRAALKALLGERLSQREVDEILQDVDLNGDGLVDFEEFVRMMS", "note": "[D5L]", "abundance fitness": "-0.32 ± 0.042"}, {"variant": "REERDAFREFDTNGDGRISVGELRAALKALLGERLSQREVDEILQDVDLNGDGLVDFEEFVRMMS", "note": "[L3E]", "abundance fitness": "-0.274 ± 0.12"}, {"variant": "RENRDAFREFDTNGDGRISVGELRAALKALLGERLSQREVDEILQDVDLNGDGLVDFEEFVRMMS", "note": "[L3N]", "abundance fitness": "-0.345 ± 0.16"}, {"variant": "REQRDAFREFDTNGDGRISVGELRAALKALLGERLSQREVDEILQDVDLNGDGLVDFEEFVRMMS", "note": "[L3Q]", "abundance fitness": "0.018 ± 0.095"}, {"variant": "REARDAFREFDTNGDGRISVGELRAALKALLGERLSQREVDEILQDVDLNGDGLVDFEEFVRMMS", "note": "[L3A]", "abundance fitness": "-0.302 ± 0.064"}, {"variant": "RETRDAFREFDTNGDGRISVGELRAALKALLGERLSQREVDEILQDVDLNGDGLVDFEEFVRMMS", "note": "[L3T]", "abundance fitness": "-0.281 ± 0.081"}, {"variant": "RESRDAFREFDTNGDGRISVGELRAALKALLGERLSQREVDEILQDVDLNGDGLVDFEEFVRMMS", "note": "[L3S]", "abundance fitness": "-0.473 ± 0.13"}, {"variant": "RECRDAFREFDTNGDGRISVGELRAALKALLGERLSQREVDEILQDVDLNGDGLVDFEEFVRMMS", "note": "[L3C]", "abundance fitness": "-1 ± 0.25"}, {"variant": "REDRDAFREFDTNGDGRISVGELRAALKALLGERLSQREVDEILQDVDLNGDGLVDFEEFVRMMS", "note": "[L3D]", "abundance fitness": "-0.497 ± 0.17"}, {"variant": "REPRDAFREFDTNGDGRISVGELRAALKALLGERLSQREVDEILQDVDLNGDGLVDFEEFVRMMS", "note": "[L3P]", "abundance fitness": "-0.441 ± 0.11"}, {"variant": "REMRDAFREFDTNGDGRISVGELRAALKALLGERLSQREVDEILQDVDLNGDGLVDFEEFVRMMS", "note": "[L3M]", "abundance fitness": "0.012 ± 0.068"}, {"variant": "REIRDAFREFDTNGDGRISVGELRAALKALLGERLSQREVDEILQDVDLNGDGLVDFEEFVRMMS", "note": "[L3I]", "abundance fitness": "-0.095 ± 0.2"}, {"variant": "REWRDAFREFDTNGDGRISVGELRAALKALLGERLSQREVDEILQDVDLNGDGLVDFEEFVRMMS", "note": "[L3W]", "abundance fitness": "-0.187 ± 0.1"}, {"variant": "RERRDAFREFDTNGDGRISVGELRAALKALLGERLSQREVDEILQDVDLNGDGLVDFEEFVRMMS", "note": "[L3R]", "abundance fitness": "-0.729 ± 0.073"}, {"variant": "REYRDAFREFDTNGDGRISVGELRAALKALLGERLSQREVDEILQDVDLNGDGLVDFEEFVRMMS", "note": "[L3Y]", "abundance fitness": "-0.139 ± 0.17"}, {"variant": "REFRDAFREFDTNGDGRISVGELRAALKALLGERLSQREVDEILQDVDLNGDGLVDFEEFVRMMS", "note": "[L3F]", "abundance fitness": "-0.113 ± 0.2"}, {"variant": "REVRDAFREFDTNGDGRISVGELRAALKALLGERLSQREVDEILQDVDLNGDGLVDFEEFVRMMS", "note": "[L3V]", "abundance fitness": "-0.15 ± 0.058"}, {"variant": "RELRDDFREFDTNGDGRISVGELRAALKALLGERLSQREVDEILQDVDLNGDGLVDFEEFVRMMS", "note": "[A6D]", "abundance fitness": "-0.709 ± 0.2"}, {"variant": "RELRDCFREFDTNGDGRISVGELRAALKALLGERLSQREVDEILQDVDLNGDGLVDFEEFVRMMS", "note": "[A6C]", "abundance fitness": "0.085 ± 0.1"}, {"variant": "RELRDEFREFDTNGDGRISVGELRAALKALLGERLSQREVDEILQDVDLNGDGLVDFEEFVRMMS", "note": "[A6E]", "abundance fitness": "-0.076 ± 0.073"}, {"variant": "RELTDAFREFDTNGDGRISVGELRAALKALLGERLSQREVDEILQDVDLNGDGLVDFEEFVRMMS", "note": "[R4T]", "abundance fitness": "-0.138 ± 0.097"}, {"variant": "RELLDAFREFDTNGDGRISVGELRAALKALLGERLSQREVDEILQDVDLNGDGLVDFEEFVRMMS", "note": "[R4L]", "abundance fitness": "-0.526 ± 0.069"}, {"variant": "RELHDAFREFDTNGDGRISVGELRAALKALLGERLSQREVDEILQDVDLNGDGLVDFEEFVRMMS", "note": "[R4H]", "abundance fitness": "-0.074 ± 0.1"}, {"variant": "RELEDAFREFDTNGDGRISVGELRAALKALLGERLSQREVDEILQDVDLNGDGLVDFEEFVRMMS", "note": "[R4E]", "abundance fitness": "0.217 ± 0.27"}, {"variant": "RELVDAFREFDTNGDGRISVGELRAALKALLGERLSQREVDEILQDVDLNGDGLVDFEEFVRMMS", "note": "[R4V]", "abundance fitness": "-0.107 ± 0.049"}, {"variant": "RELKDAFREFDTNGDGRISVGELRAALKALLGERLSQREVDEILQDVDLNGDGLVDFEEFVRMMS", "note": "[R4K]", "abundance fitness": "0.064 ± 0.077"}, {"variant": "RELFDAFREFDTNGDGRISVGELRAALKALLGERLSQREVDEILQDVDLNGDGLVDFEEFVRMMS", "note": "[R4F]", "abundance fitness": "-0.321 ± 0.16"}, {"variant": "RELYDAFREFDTNGDGRISVGELRAALKALLGERLSQREVDEILQDVDLNGDGLVDFEEFVRMMS", "note": "[R4Y]", "abundance fitness": "-0.544 ± 0.36"}, {"variant": "RELADAFREFDTNGDGRISVGELRAALKALLGERLSQREVDEILQDVDLNGDGLVDFEEFVRMMS", "note": "[R4A]", "abundance fitness": "-0.28 ± 0.099"}, {"variant": "RELDDAFREFDTNGDGRISVGELRAALKALLGERLSQREVDEILQDVDLNGDGLVDFEEFVRMMS", "note": "[R4D]", "abundance fitness": "-0.052 ± 0.15"}, {"variant": "RELNDAFREFDTNGDGRISVGELRAALKALLGERLSQREVDEILQDVDLNGDGLVDFEEFVRMMS", "note": "[R4N]", "abundance fitness": "-0.027 ± 0.12"}, {"variant": "RELMDAFREFDTNGDGRISVGELRAALKALLGERLSQREVDEILQDVDLNGDGLVDFEEFVRMMS", "note": "[R4M]", "abundance fitness": "-0.144 ± 0.095"}, {"variant": "RELQDAFREFDTNGDGRISVGELRAALKALLGERLSQREVDEILQDVDLNGDGLVDFEEFVRMMS", "note": "[R4Q]", "abundance fitness": "-0.21 ± 0.11"}, {"variant": "RELGDAFREFDTNGDGRISVGELRAALKALLGERLSQREVDEILQDVDLNGDGLVDFEEFVRMMS", "note": "[R4G]", "abundance fitness": "-0.255 ± 0.086"}, {"variant": "RELSDAFREFDTNGDGRISVGELRAALKALLGERLSQREVDEILQDVDLNGDGLVDFEEFVRMMS", "note": "[R4S]", "abundance fitness": "-0.276 ± 0.083"}]}]}
